One molecule from publication PMC3596498 can be followed below.

The target of the assay is SciP (Caulobacter crescentus).

B1: C. crescentus Lon (enzyme)
chain: MSELRTLPVLPLRDIVVFPHMVVPLFVGRDKSVRALEEVMRGDKQILLVTQKNSADDDPAPGDIFEVGVLATVLQLLKLPDGTVKVLVEGKARAAVVSFTDQESYYEAQIGEVSEDDGAGPEAEALSRAVVEQFENYVKLNKKVPPEALASIPQIAEPGKLADSIAAHLSVKIGDKQNLLEIFDVVKRLEKVFALMEGEISVLQVEKKIRSRVKRQMEKTQREYYLNEQMKAIQRELGDPDDARDELIDLEKRIKKTKLSKEARTKAESELKKLRNMSPMSAESTVVRNYLDWLLSIPWGKAKTKKIDLVESEGILDADHYGLEKVKERILEYLAVQARTNSLKGPILCLVGPPGVGKTSLGKSIAKATGREFVRMSLGGVRDEAEIRGHRRTYIGSMPGKVVQSMKKAKTTNAFVLLDEIDKMGSDYRGDPASALLEVLDPSQNSTFGDHYLEVDYDLSQVMFVTTANSLNMPQPLLDRMEIIRIPGYTEDEKLEIAKRHILPKLAKDHGLKPAEFIVPDKAIRDLIRYYTREAGVRSLERELGALARKTVRDLAREKVASITIDDERLAKYAGVKKYRYGETDEVDQVGIVTGLAWTEFGGDILTIEAVKMPGKGRMQITGNLKDVMKESIAAANSYVRSRALQFGIKPPVFEKTDVHIHVPDGATPKDGPSAGIAMALAMVSVLTGIPIRKDIAMTGEITLRGRVTAIGGLKEKLLAALRSGVKTVLIPQENEKDLADVPQTVKDGLEIIPVSTVDEVLKHALTGPLTPVEWNEAEEPITTSAKKDDGDSDAMLTH
B1 came in with a half-life of purified SciP (0.5 µM) degraded by purified Lon (0.5 µM) in vitro of 12 min.
